Source: US20250171562A1

Target: mixture of three Der p 2 specific recombinant human IgE clones H10, H12, P4E (human) (UniProt P01854)
Assay: RBL-SX38 IgE displacement, FACS

Sequence of mixture of three Der p 2 specific recombinant human IgE clones H10, H12, P4E (human) (P01854 other isoform, or with tags, fused parts or gaps): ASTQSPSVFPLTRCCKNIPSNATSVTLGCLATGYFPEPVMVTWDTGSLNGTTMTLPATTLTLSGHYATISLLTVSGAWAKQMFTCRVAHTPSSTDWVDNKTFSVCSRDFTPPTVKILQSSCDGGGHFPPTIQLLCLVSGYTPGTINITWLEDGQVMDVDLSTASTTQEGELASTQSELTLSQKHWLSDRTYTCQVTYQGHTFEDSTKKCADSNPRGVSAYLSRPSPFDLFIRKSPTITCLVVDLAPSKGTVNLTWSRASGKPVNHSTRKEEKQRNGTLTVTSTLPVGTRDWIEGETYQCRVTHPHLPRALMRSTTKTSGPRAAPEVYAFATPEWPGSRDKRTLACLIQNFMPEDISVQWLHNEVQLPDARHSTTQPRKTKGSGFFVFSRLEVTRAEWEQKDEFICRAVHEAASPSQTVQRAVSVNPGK

EC50 [nM] | Max effect/effect 1 µM [%] | Binder
6.3 | 96 | NIgG4D2A1(G4S)2 (Fc fusion) chain 1: DVQLQESGGGLVEAGGSLRLSCVASGRTFSGWSMGWFRQAPGKEREFVAAISWVGSWIGGTVYSNSVKGRFTISRDNARTTVYLQMNSLKPEDTAVYFCAAANSETPRIFASEYDYWGQGTQVTVSGGGGSGGGGSGPPCPPCPAPEFLGGPSVFLFPPKPKDTLMISRTPEVTCVVVDVSQEDPEVQFNWYVDGVEVHNAKTKPREEQFNSTYRVVSVLTVLHQDWLNGKEYKCKVSNKGLPSSIEKTISKAKGQPREPQVYTLPPCQEEMTKNQVSLWCLVKGFYPSDIAVEWESNGQPENNYKTTPPVLDSDGSFFLYSRLTVDKSRWQEGNVFSCSVMHEALHNHYTQKSLSLSLGK chain 2: EVQLLESGGGLVQPGGSLRLSCAASGFTFGNYDMAWVRQAPGKRPEWVSSIDTGGDITHYADSVKGRFTISRDNAKNTLYLQMNSLRPEDTAVYWCATDEEYALGPNEFDYYGQGTLVTVSSGGGGSGGGGSGPPCPPCPAPEFLGGPSVFLFPPKPKDTLMISRTPEVTCVVVDVSQEDPEVQFNWYVDGVEVHNAKTKPREEQFNSTYRVVSVLTVLHQDWLNGKEYKCKVSNKGLPSSIEKTISKAKGQPREPQVCTLPPSQEEMTKNQVSLSCAVKGFYPSDIAVEWESNGQPENNYKTTPPVLDSDGSFFLVSRLTVDKSRWQEGNVFSCSVMHEALHNHYTQKSLSLSLGK
8.7 | 97 | NIgG4D2A1(G4S)1 (Fc fusion) chain 1: DVQLQESGGGLVEAGGSLRLSCVASGRTFSGWSMGWFRQAPGKEREFVAAISWVGSWIGGTVYSNSVKGRFTISRDNARTTVYLQMNSLKPEDTAVYFCAAANSETPRIFASEYDYWGQGTQVTVSGGGGSGPPCPPCPAPEFLGGPSVFLFPPKPKDTLMISRTPEVTCVVVDVSQEDPEVQFNWYVDGVEVHNAKTKPREEQFNSTYRVVSVLTVLHQDWLNGKEYKCKVSNKGLPSSIEKTISKAKGQPREPQVYTLPPCQEEMTKNQVSLWCLVKGFYPSDIAVEWESNGQPENNYKTTPPVLDSDGSFFLYSRLTVDKSRWQEGNVFSCSVMHEALHNHYTQKSLSLSLGK chain 2: EVQLLESGGGLVQPGGSLRLSCAASGFTFGNYDMAWVRQAPGKRPEWVSSIDTGGDITHYADSVKGRFTISRDNAKNTLYLQMNSLRPEDTAVYWCATDEEYALGPNEFDYYGQGTLVTVSSGGGGSGPPCPPCPAPEFLGGPSVFLFPPKPKDTLMISRTPEVTCVVVDVSQEDPEVQFNWYVDGVEVHNAKTKPREEQFNSTYRVVSVLTVLHQDWLNGKEYKCKVSNKGLPSSIEKTISKAKGQPREPQVCTLPPSQEEMTKNQVSLSCAVKGFYPSDIAVEWESNGQPENNYKTTPPVLDSDGSFFLVSRLTVDKSRWQEGNVFSCSVMHEALHNHYTQKSLSLSLGK
126 | 95 | CIgG4D2A1(G4S)1 (Fc fusion) chain 1: GPPCPPCPAPEFLGGPSVFLFPPKPKDTLMISRTPEVTCVVVDVSQEDPEVQFNWYVDGVEVHNAKTKPREEQFNSTYRVVSVLTVLHQDWLNGKEYKCKVSNKGLPSSIEKTISKAKGQPREPQVYTLPPCQEEMTKNQVSLWCLVKGFYPSDIAVEWESNGQPENNYKTTPPVLDSDGSFFLYSRLTVDKSRWQEGNVFSCSVMHEALHNHYTQKSLSLSLGKGGGGSDVQLQESGGGLVEAGGSLRLSCVASGRTFSGWSMGWFRQAPGKEREFVAAISWVGSWIGGTVYSNSVKGRFTISRDNARTTVYLQMNSLKPEDTAVYFCAAANSETPRIFASEYDYWGQGTQVTVS chain 2: GPPCPPCPAPEFLGGPSVFLFPPKPKDTLMISRTPEVTCVVVDVSQEDPEVQFNWYVDGVEVHNAKTKPREEQFNSTYRVVSVLTVLHQDWLNGKEYKCKVSNKGLPSSIEKTISKAKGQPREPQVCTLPPSQEEMTKNQVSLSCAVKGFYPSDIAVEWESNGQPENNYKTTPPVLDSDGSFFLVSRLTVDKSRWQEGNVFSCSVMHEALHNHYTQKSLSLSLGKGGGGSEVQLLESGGGLVQPGGSLRLSCAASGFTFGNYDMAWVRQAPGKRPEWVSSIDTGGDITHYADSVKGRFTISRDNAKNTLYLQMNSLRPEDTAVYWCATDEEYALGPNEFDYYGQGTLVTVSS
39 | 99 | CIgG4D2A1(G4S)2 (Fc fusion) chain 1: GPPCPPCPAPEFLGGPSVFLFPPKPKDTLMISRTPEVTCVVVDVSQEDPEVQFNWYVDGVEVHNAKTKPREEQFNSTYRVVSVLTVLHQDWLNGKEYKCKVSNKGLPSSIEKTISKAKGQPREPQVYTLPPCQEEMTKNQVSLWCLVKGFYPSDIAVEWESNGQPENNYKTTPPVLDSDGSFFLYSRLTVDKSRWQEGNVFSCSVMHEALHNHYTQKSLSLSLGKGGGGSGGGGSDVQLQESGGGLVEAGGSLRLSCVASGRTFSGWSMGWFRQAPGKEREFVAAISWVGSWIGGTVYSNSVKGRFTISRDNARTTVYLQMNSLKPEDTAVYFCAAANSETPRIFASEYDYWGQGTQVTVS chain 2: GPPCPPCPAPEFLGGPSVFLFPPKPKDTLMISRTPEVTCVVVDVSQEDPEVQFNWYVDGVEVHNAKTKPREEQFNSTYRVVSVLTVLHQDWLNGKEYKCKVSNKGLPSSIEKTISKAKGQPREPQVCTLPPSQEEMTKNQVSLSCAVKGFYPSDIAVEWESNGQPENNYKTTPPVLDSDGSFFLVSRLTVDKSRWQEGNVFSCSVMHEALHNHYTQKSLSLSLGKGGGGSGGGGSEVQLLESGGGLVQPGGSLRLSCAASGFTFGNYDMAWVRQAPGKRPEWVSSIDTGGDITHYADSVKGRFTISRDNAKNTLYLQMNSLRPEDTAVYWCATDEEYALGPNEFDYYGQGTLVTVSS
– | 6 | CIgG4D2A1(RS) (Fc fusion) chain 1: GPPCPPCPAPEFLGGPSVFLFPPKPKDTLMISRTPEVTCVVVDVSQEDPEVQFNWYVDGVEVHNAKTKPREEQFNSTYRVVSVLTVLHQDWLNGKEYKCKVSNKGLPSSIEKTISKAKGQPREPQVYTLPPCQEEMTKNQVSLWCLVKGFYPSDIAVEWESNGQPENNYKTTPPVLDSDGSFFLYSRLTVDKSRWQEGNVFSCSVMHEALHNHYTQKSLSLSLGKRSDVQLQESGGGLVEAGGSLRLSCVASGRTFSGWSMGWFRQAPGKEREFVAAISWVGSWIGGTVYSNSVKGRFTISRDNARTTVYLQMNSLKPEDTAVYFCAAANSETPRIFASEYDYWGQGTQVTVS chain 2: GPPCPPCPAPEFLGGPSVFLFPPKPKDTLMISRTPEVTCVVVDVSQEDPEVQFNWYVDGVEVHNAKTKPREEQFNSTYRVVSVLTVLHQDWLNGKEYKCKVSNKGLPSSIEKTISKAKGQPREPQVCTLPPSQEEMTKNQVSLSCAVKGFYPSDIAVEWESNGQPENNYKTTPPVLDSDGSFFLVSRLTVDKSRWQEGNVFSCSVMHEALHNHYTQKSLSLSLGKRSEVQLLESGGGLVQPGGSLRLSCAASGFTFGNYDMAWVRQAPGKRPEWVSSIDTGGDITHYADSVKGRFTISRDNAKNTLYLQMNSLRPEDTAVYWCATDEEYALGPNEFDYYGQGTLVTVSS
64.6 | 96 | CIgG4D1A1(G4S)3 (Fc fusion) chain 1: GPPCPPCPAPEFLGGPSVFLFPPKPKDTLMISRTPEVTCVVVDVSQEDPEVQFNWYVDGVEVHNAKTKPREEQFNSTYRVVSVLTVLHQDWLNGKEYKCKVSNKGLPSSIEKTISKAKGQPREPQVYTLPPCQEEMTKNQVSLWCLVKGFYPSDIAVEWESNGQPENNYKTTPPVLDSDGSFFLYSRLTVDKSRWQEGNVFSCSVMHEALHNHYTQKSLSLSLGKGGGGSGGGGSGGGGSDVQLQESGGGLVQAGGSLRLSCAASGLTFSRCDMGWFRQAPGKEREFVARISANGASTHYADFVKGRFTISRDNAKNTVYLQMNYLKPEDTAVYICAAARVPVTWQLYDYWGQGTQVTVS chain 2: GPPCPPCPAPEFLGGPSVFLFPPKPKDTLMISRTPEVTCVVVDVSQEDPEVQFNWYVDGVEVHNAKTKPREEQFNSTYRVVSVLTVLHQDWLNGKEYKCKVSNKGLPSSIEKTISKAKGQPREPQVCTLPPSQEEMTKNQVSLSCAVKGFYPSDIAVEWESNGQPENNYKTTPPVLDSDGSFFLVSRLTVDKSRWQEGNVFSCSVMHEALHNHYTQKSLSLSLGKGGGGSGGGGSGGGGSEVQLLESGGGLVQPGGSLRLSCAASGFTFGNYDMAWVRQAPGKRPEWVSSIDTGGDITHYADSVKGRFTISRDNAKNTLYLQMNSLRPEDTAVYWCATDEEYALGPNEFDYYGQGTLVTVSS
3.7 | 88 | NIgG4D2A1(G4S)3 (Fc fusion) chain 1: DVQLQESGGGLVEAGGSLRLSCVASGRTFSGWSMGWFRQAPGKEREFVAAISWVGSWIGGTVYSNSVKGRFTISRDNARTTVYLQMNSLKPEDTAVYFCAAANSETPRIFASEYDYWGQGTQVTVSGGGGSGGGGSGGGGSGPPCPPCPAPEFLGGPSVFLFPPKPKDTLMISRTPEVTCVVVDVSQEDPEVQFNWYVDGVEVHNAKTKPREEQFNSTYRVVSVLTVLHQDWLNGKEYKCKVSNKGLPSSIEKTISKAKGQPREPQVYTLPPCQEEMTKNQVSLWCLVKGFYPSDIAVEWESNGQPENNYKTTPPVLDSDGSFFLYSRLTVDKSRWQEGNVFSCSVMHEALHNHYTQKSLSLSLGK chain 2: EVQLLESGGGLVQPGGSLRLSCAASGFTFGNYDMAWVRQAPGKRPEWVSSIDTGGDITHYADSVKGRFTISRDNAKNTLYLQMNSLRPEDTAVYWCATDEEYALGPNEFDYYGQGTLVTVSSGGGGSGGGGSGGGGSGPPCPPCPAPEFLGGPSVFLFPPKPKDTLMISRTPEVTCVVVDVSQEDPEVQFNWYVDGVEVHNAKTKPREEQFNSTYRVVSVLTVLHQDWLNGKEYKCKVSNKGLPSSIEKTISKAKGQPREPQVCTLPPSQEEMTKNQVSLSCAVKGFYPSDIAVEWESNGQPENNYKTTPPVLDSDGSFFLVSRLTVDKSRWQEGNVFSCSVMHEALHNHYTQKSLSLSLGK
12.3 | 97 | NIgG4D2A1(RS) (Fc fusion) chain 1: DVQLQESGGGLVEAGGSLRLSCVASGRTFSGWSMGWFRQAPGKEREFVAAISWVGSWIGGTVYSNSVKGRFTISRDNARTTVYLQMNSLKPEDTAVYFCAAANSETPRIFASEYDYWGQGTQVTVSRSGPPCPPCPAPEFLGGPSVFLFPPKPKDTLMISRTPEVTCVVVDVSQEDPEVQFNWYVDGVEVHNAKTKPREEQFNSTYRVVSVLTVLHQDWLNGKEYKCKVSNKGLPSSIEKTISKAKGQPREPQVYTLPPCQEEMTKNQVSLWCLVKGFYPSDIAVEWESNGQPENNYKTTPPVLDSDGSFFLYSRLTVDKSRWQEGNVFSCSVMHEALHNHYTQKSLSLSLGK chain 2: EVQLLESGGGLVQPGGSLRLSCAASGFTFGNYDMAWVRQAPGKRPEWVSSIDTGGDITHYADSVKGRFTISRDNAKNTLYLQMNSLRPEDTAVYWCATDEEYALGPNEFDYYGQGTLVTVSSRSGPPCPPCPAPEFLGGPSVFLFPPKPKDTLMISRTPEVTCVVVDVSQEDPEVQFNWYVDGVEVHNAKTKPREEQFNSTYRVVSVLTVLHQDWLNGKEYKCKVSNKGLPSSIEKTISKAKGQPREPQVCTLPPSQEEMTKNQVSLSCAVKGFYPSDIAVEWESNGQPENNYKTTPPVLDSDGSFFLVSRLTVDKSRWQEGNVFSCSVMHEALHNHYTQKSLSLSLGK
